Measurements reported in patent publication US20210292396A1.
Residue numbers refer to the chain shown, from its start.

Key:
Assay in all cases: cell-based or functional assay
[1] = target: HIV Env of isolate CNE30 (HIV)
[2] = target: Env of HIV isolate BG1168.01 (clade B) (HIV)
[3] = target: Env of HIV isolate UG024.2 (clade D) (HIV)
[4] = target: Env of HIV isolate CAP210.E8 (clade C) (HIV)
[5] = target: Env of HIV isolate Q23.17 (clade A) (HIV)
[6] = target: HIV Env of isolate CAP256.206.C9 (HIV)
[7] = target: Env of HIV isolate YU2.DG (clade B) (HIV)
[8] = target: HIV Env of isolate CAP45.G3 (HIV)
[9] = target: Env of HIV isolate 242-14 (clade AG) (HIV)
[10] = target: Env of HIV isolate T251-18 (clade AG) (HIV)
[11] = target: Env of HIV isolate 16055-2.3 (clade C) (HIV)
[12] = target: HIV Env of isolate 6644.v2.c33 (HIV)
[13] = target: Env of HIV isolate BX08.16 (clade B) (HIV)
[14] = target: Env of HIV isolate MN.3 (clade B) (HIV)
[15] = target: HIV Env of isolate 16845-2.22 (HIV)
[16] = target: Env of HIV isolate 3468.v1.c12 (clade AD) (HIV)
[17] = target: HIV Env of isolate ZM197.7 (HIV)
[18] = target: Envelope protein of SVA.MLV (clade NA)
[19] = target: Env of HIV isolate 263-8 (clade AG) (HIV)
[20] = target: Env of HIV isolate ZM55.28a (clade C) (HIV)
[21] = target: Env of HIV isolate 620345.c1 (clade AE) (HIV)
[22] = target: Env of HIV isolate CNE3 (clade AE) (HIV)
[23] = target: Env of HIV isolate RHPA.7 (clade B) (HIV)
[24] = target: Env of HIV isolate BJOX009000.02.4 (clade AE) (HIV)
[25] = target: HIV Env of isolate ZM215.8 (HIV)
[26] = target: Env of HIV isolate 3301.v1.c24 (clade AC) (HIV)
[27] = target: Env of HIV isolate TV1.29 (clade C) (HIV)
[28] = target: Env of HIV isolate 0013095-2.11 (clade C) (HIV)
[29] = target: HIV Env of isolate 6471.v1.c16 (HIV)
[30] = target: Env of HIV isolate C4118.09 (clade AE) (HIV)
[31] = target: Env of HIV isolate ZM106.9 (clade C) (HIV)
[32] = target: Env of HIV isolate Q842.d12 (clade A) (HIV)
[33] = target: Env of HIV isolate R3265.c6 (clade AE) (HIV)
[34] = target: HIV Env of isolate DU172.17 (HIV)
[35] = target: Env of HIV isolate T253-11 (clade AG) (HIV)
[36] = target: Env of HIV isolate T255-34 (clade AG) (HIV)
[37] = target: HIV Env of isolate 0013095-2.11 (HIV)
[38] = target: HIV Env of isolate 3326.v4.c3 (HIV)
[39] = target: Env of HIV isolate 0815.v3.c3 (clade ACD) (HIV)
[40] = target: Env of HIV isolate 26191-2.48 (clade C) (HIV)
[41] = target: Env of HIV isolate P1981.C5.3 (clade G) (HIV)
[42] = target: Env of HIV isolate CNE56 (clade AE) (HIV)
[43] = target: Env of HIV isolate BG505.W6M.C2 (clade A) (HIV)
[44] = target: Env of HIV isolate 6644.v2.c33 (clade C) (HIV)
[45] = target: Env of HIV isolate TH976.17 (clade AE) (HIV)
[46] = target: HIV Env of isolate 6838.v1.c35 (HIV)
[47] = target: Env of HIV isolate 6545.v4.c1 (clade AC) (HIV)
[48] = target: Env of HIV isolate 16936-2.21 (clade C) (HIV)
[49] = target: Env of HIV isolate 426c (clade C) (HIV)
[50] = target: Env of HIV isolate QH0692.42 (clade B) (HIV)

B1: ePGT121.15.H2.L1 (antibody, V domains shown)
VH: QMQLQESGPGLVKPGETLSLTCSVSGASISSSYWSWLRETPGKGLEWIGYTHHSGDTNYAPSLKSRVHLGLHPSKNQVSLSLTSVTAADTAVYYCARTLHGRRIYGVVAFNEWFTYFYWEVWGKGTQVTVSS
VL: SDISVAPGETVRISCGGESIGSRAVQWYQHRAGQAPKLIIYNNQDRPPGIPERFSGSPDIDFGTTATLTITNVEAGDEATYYCHIWDSRRPTNWVFGGGTTLTVL
Q: With B1 as the binder, how does the neutralization (Table 6 value) [1] read?
A: Its neutralization (Table 6 value) is 0.00312.

B2: ePGT121.18.17 (ePGT121.18.H17 VH and ePGT121.17.L1 VL) (antibody, V domains shown)
VH: B1 VH with H68T, L69I, H72D, W113Y, F114Y, E120P, V121T
VL: B1 VL with S14T, A32P, K37R, T71S, V95E, F96L, G98P
Q: What does the source list for B2?
A: IC50, pseudovirus neutralization [2]: > 50 µg/mL; IC50, pseudovirus neutralization [3]: 0.429 µg/mL; IC50, pseudovirus neutralization [4]: 0.124 µg/mL; IC50, pseudovirus neutralization [5]: 0.006 µg/mL; IC80, pseudovirus neutralization [6]: 0.009 µg/mL; IC50, pseudovirus neutralization [7]: 0.011 µg/mL; IC80, pseudovirus neutralization [8]: > 50 µg/mL; IC50, pseudovirus neutralization [9]: > 50 µg/mL; IC50, pseudovirus neutralization [10]: 0.041 µg/mL; IC50, pseudovirus neutralization [11]: 0.036 µg/mL; IC80, pseudovirus neutralization [12]: 0.015 µg/mL; IC50, pseudovirus neutralization [13]: 0.004 µg/mL; IC50, pseudovirus neutralization [14]: 0.004 µg/mL; IC80, pseudovirus neutralization [15]: 0.629 µg/mL; IC50, pseudovirus neutralization [16]: 0.004 µg/mL; IC80, pseudovirus neutralization [17]: > 50 µg/mL; IC50, pseudovirus neutralization [18]: > 50 µg/mL; IC50, pseudovirus neutralization [19]: 0.02 µg/mL; IC50, pseudovirus neutralization [20]: 0.012 µg/mL; IC50, pseudovirus neutralization [21]: > 50 µg/mL; IC50, pseudovirus neutralization [22]: > 50 µg/mL; IC50, pseudovirus neutralization [23]: 0.004 µg/mL; IC50, pseudovirus neutralization [24]: 0.156 µg/mL; IC80, pseudovirus neutralization [25]: 0.048 µg/mL; IC50, pseudovirus neutralization [26]: 0.009 µg/mL; IC50, pseudovirus neutralization [27]: 0.011 µg/mL; IC50, pseudovirus neutralization [28]: 1.68 µg/mL; IC80, pseudovirus neutralization [29]: 10 µg/mL; IC50, pseudovirus neutralization [30]: > 50 µg/mL; IC50, pseudovirus neutralization [31]: 0.004 µg/mL; IC50, pseudovirus neutralization [32]: 0.007 µg/mL; IC50, pseudovirus neutralization [33]: > 50 µg/mL; IC80, pseudovirus neutralization [1]: 0.047 µg/mL; IC80, pseudovirus neutralization [34]: 0.018 µg/mL; IC50, pseudovirus neutralization [35]: 0.025 µg/mL; IC50, pseudovirus neutralization [36]: 0.032 µg/mL; IC80, pseudovirus neutralization [37]: 13.4 µg/mL; IC80, pseudovirus neutralization [38]: 32 µg/mL; IC50, pseudovirus neutralization [39]: 0.005 µg/mL; IC50, pseudovirus neutralization [40]: 0.011 µg/mL; IC50, pseudovirus neutralization [41]: 0.002 µg/mL; IC50, pseudovirus neutralization [42]: > 50 µg/mL; IC50, pseudovirus neutralization [43]: 0.047 µg/mL; IC50, pseudovirus neutralization [44]: 0.005 µg/mL; IC50, pseudovirus neutralization [45]: > 50 µg/mL; IC80, pseudovirus neutralization [46]: 4.34 µg/mL; IC50, pseudovirus neutralization [47]: > 50 µg/mL; IC50, pseudovirus neutralization [48]: 0.004 µg/mL; IC50, pseudovirus neutralization [49]: 0.26 µg/mL; IC50, pseudovirus neutralization [50]: 0.035 µg/mL
